Laboratory results reported in patent US20220064329A1 (Novo Nordisk, published 2022).
Positions count from the first letter of the chain named. Numbers in names are those of the source.

T1: recombinant human activated Factor VII (FVIIa) (human, UniProt P08709 61-212; P08709 213-466, ten glutamate residues of the Gla domain may be gamma-carboxylated)
T1 construct: chains tethered by a disulfide bond; also called Factor VIIa; rFVIIa
T1 sequence 1: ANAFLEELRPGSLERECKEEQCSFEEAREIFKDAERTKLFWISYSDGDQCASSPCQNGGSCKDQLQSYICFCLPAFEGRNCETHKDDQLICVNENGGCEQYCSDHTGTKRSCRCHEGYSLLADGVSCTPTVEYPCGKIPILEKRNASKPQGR
T1 sequence 2: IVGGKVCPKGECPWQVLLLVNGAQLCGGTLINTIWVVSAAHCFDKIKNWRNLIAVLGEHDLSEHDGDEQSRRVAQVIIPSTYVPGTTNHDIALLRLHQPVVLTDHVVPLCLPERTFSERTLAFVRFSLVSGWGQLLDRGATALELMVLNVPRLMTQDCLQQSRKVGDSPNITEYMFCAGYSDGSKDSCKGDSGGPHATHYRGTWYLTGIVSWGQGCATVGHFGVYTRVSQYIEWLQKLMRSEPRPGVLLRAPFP

B1: VH SEQ ID NO 594 / VL SEQ ID NO 454 (antibody, IgG4, V domains shown)
VH: QVQLQESGPGLVKPSDTLSLTCAVSGYSISSDSAWSWIRQPPGKKLEWIGYIQYSGSTNYNPSLKSRVTMSVDTSKNQFSLKLSSVTALDTAVYYCARSVNYYGNSFAVGPWGQGTLVTVSS
VL: EIVLTQSPATLSLSPGERATLSCRASQGVSDYLHWYQQKPGEAPRLLIKYASQPATGIPARFSGSGSGTDFTLTISSLEPEDFAVYYCQNGHSFPLTFGQGTKLEIK
notes: humanized 11F2; IgG4 S228P/kappa
B2: VH SEQ ID NO 602 / VL SEQ ID NO 438 (antibody, IgG4, V domains shown)
VH: B1 VH with D16Q, A23T, Y27G, K45G, M70I, L89A, P111Y
VL: B1 VL with H34A, E42Q, F83V
notes: as for B1
B3: VH SEQ ID NO 602 / VL SEQ ID NO 342 (antibody, IgG4, V domains shown)
VH: B1 VH with D16Q, A23T, Y27G, K45G, M70I, L89A, P111Y
VL: B1 VL with V29I, E42Q, A51T, T69R, Q100A, I106L
notes: as for B1
B4: VH SEQ ID NO 602 / VL SEQ ID NO 454 (antibody, IgG4, V domains shown)
VH: B1 VH with D16Q, A23T, Y27G, K45G, M70I, L89A, P111Y
VL: B1 VL
notes: as for B1
B5: VH SEQ ID NO 602 / VL SEQ ID NO 414 (antibody, IgG4, V domains shown)
VH: B1 VH with D16Q, A23T, Y27G, K45G, M70I, L89A, P111Y
VL: B1 VL with H34A, E42Q
notes: as for B1
B6: VH SEQ ID NO 602 / VL SEQ ID NO 462 (antibody, IgG4, V domains shown)
VH: B1 VH with D16Q, A23T, Y27G, K45G, M70I, L89A, P111Y
VL: B1 VL with E42Q, Q100A
notes: as for B1
B7: VH SEQ ID NO 610 / VL SEQ ID NO 342 (antibody, IgG4, V domains shown)
VH: B1 VH with D16Q, A23T, Y27G, S30T, K45G, M70I, L89A, P111Y
VL: B1 VL with V29I, E42Q, A51T, T69R, Q100A, I106L
notes: as for B1
B8: VH SEQ ID NO 602 / VL SEQ ID NO 486 (antibody, IgG4, V domains shown)
VH: B1 VH with D16Q, A23T, Y27G, K45G, M70I, L89A, P111Y
VL: B1 VL with E42Q, A84G
notes: as for B1
B9: VH SEQ ID NO 610 / VL SEQ ID NO 358 (antibody, IgG4, V domains shown)
VH: B1 VH with D16Q, A23T, Y27G, S30T, K45G, M70I, L89A, P111Y
VL: B1 VL with V29I, E42Q, A51T
notes: as for B1
B10: VH SEQ ID NO 610 / VL SEQ ID NO 318 (antibody, IgG4, V domains shown)
VH: B1 VH with D16Q, A23T, Y27G, S30T, K45G, M70I, L89A, P111Y
VL: B1 VL with V29I, A51T
notes: as for B1
B11: VH SEQ ID NO 602 / VL SEQ ID NO 366 (antibody, IgG4, V domains shown)
VH: B1 VH with D16Q, A23T, Y27G, K45G, M70I, L89A, P111Y
VL: B1 VL with V29L, H34A
notes: as for B1
B12: VH SEQ ID NO 602 / VL SEQ ID NO 334 (antibody, IgG4, V domains shown)
VH: B1 VH with D16Q, A23T, Y27G, K45G, M70I, L89A, P111Y
VL: B1 VL with V29I, E42Q
notes: as for B1
B13: VH SEQ ID NO 594 / VL SEQ ID NO 494 (antibody, IgG4, V domains shown)
VH: B1 VH
VL: B1 VL with E42Q, F83V
notes: as for B1
B14: VH SEQ ID NO 594 / VL SEQ ID NO 470 (antibody, IgG4, V domains shown)
VH: B1 VH
VL: B1 VL with E42Q
notes: as for B1
B15: VH SEQ ID NO 602 / VL SEQ ID NO 310 (antibody, IgG4, V domains shown)
VH: B1 VH with D16Q, A23T, Y27G, K45G, M70I, L89A, P111Y
VL: B1 VL with V29I, H34A, E42Q
notes: as for B1
B16: VH SEQ ID NO 602 / VL SEQ ID NO 382 (antibody, IgG4, V domains shown)
VH: B1 VH with D16Q, A23T, Y27G, K45G, M70I, L89A, P111Y
VL: B1 VL with V29L
notes: as for B1
B17: VH SEQ ID NO 602 / VL SEQ ID NO 390 (antibody, IgG4, V domains shown)
VH: B1 VH with D16Q, A23T, Y27G, K45G, M70I, L89A, P111Y
VL: B1 VL with H34A
notes: as for B1
B18: VH SEQ ID NO 602 / VL SEQ ID NO 406 (antibody, IgG4, V domains shown)
VH: B1 VH with D16Q, A23T, Y27G, K45G, M70I, L89A, P111Y
VL: B1 VL with H34A, E42Q, Q100A
notes: as for B1
B19: VH SEQ ID NO 610 / VL SEQ ID NO 350 (antibody, IgG4, V domains shown)
VH: B1 VH with D16Q, A23T, Y27G, S30T, K45G, M70I, L89A, P111Y
VL: B1 VL with V29I, E42Q, A51T, Q100A, I106L
notes: as for B1
B20: VH SEQ ID NO 602 / VL SEQ ID NO 494 (antibody, IgG4, V domains shown)
VH: B1 VH with D16Q, A23T, Y27G, K45G, M70I, L89A, P111Y
VL: B1 VL with E42Q, F83V
notes: as for B1
B21: VH SEQ ID NO 594 / VL SEQ ID NO 462 (antibody, IgG4, V domains shown)
VH: B1 VH
VL: B1 VL with E42Q, Q100A
notes: as for B1
B22: VH SEQ ID NO 594 / VL SEQ ID NO 502 (antibody, IgG4, V domains shown)
VH: B1 VH
VL: B1 VL with E42Q, A51T
notes: as for B1
B23: VH SEQ ID NO 610 / VL SEQ ID NO 310 (antibody, IgG4, V domains shown)
VH: B1 VH with D16Q, A23T, Y27G, S30T, K45G, M70I, L89A, P111Y
VL: B1 VL with V29I, H34A, E42Q
notes: as for B1
B24: VH SEQ ID NO 594 / VL SEQ ID NO 478 (antibody, IgG4, V domains shown)
VH: B1 VH
VL: B1 VL with E42Q, N90Q
notes: as for B1
B25: VH SEQ ID NO 602 / VL SEQ ID NO 358 (antibody, IgG4, V domains shown)
VH: B1 VH with D16Q, A23T, Y27G, K45G, M70I, L89A, P111Y
VL: B1 VL with V29I, E42Q, A51T
notes: as for B1
B26: VH SEQ ID NO 602 / VL SEQ ID NO 326 (antibody, IgG4, V domains shown)
VH: B1 VH with D16Q, A23T, Y27G, K45G, M70I, L89A, P111Y
VL: B1 VL with V29I, A51T, A84G, Q100A, I106L
notes: as for B1
B27: VH SEQ ID NO 594 / VL SEQ ID NO 486 (antibody, IgG4, V domains shown)
VH: B1 VH
VL: B1 VL with E42Q, A84G
notes: as for B1
B28: VH SEQ ID NO 602 / VL SEQ ID NO 470 (antibody, IgG4, V domains shown)
VH: B1 VH with D16Q, A23T, Y27G, K45G, M70I, L89A, P111Y
VL: B1 VL with E42Q
notes: as for B1
B29: VH SEQ ID NO 602 / VL SEQ ID NO 478 (antibody, IgG4, V domains shown)
VH: B1 VH with D16Q, A23T, Y27G, K45G, M70I, L89A, P111Y
VL: B1 VL with E42Q, N90Q
notes: as for B1
B30: VH SEQ ID NO 602 / VL SEQ ID NO 318 (antibody, IgG4, V domains shown)
VH: B1 VH with D16Q, A23T, Y27G, K45G, M70I, L89A, P111Y
VL: B1 VL with V29I, A51T
notes: as for B1
B31: VH SEQ ID NO 610 / VL SEQ ID NO 334 (antibody, IgG4, V domains shown)
VH: B1 VH with D16Q, A23T, Y27G, S30T, K45G, M70I, L89A, P111Y
VL: B1 VL with V29I, E42Q
notes: as for B1
B32: VH SEQ ID NO 602 / VL SEQ ID NO 350 (antibody, IgG4, V domains shown)
VH: B1 VH with D16Q, A23T, Y27G, K45G, M70I, L89A, P111Y
VL: B1 VL with V29I, E42Q, A51T, Q100A, I106L
notes: as for B1
B33: VH SEQ ID NO 602 / VL SEQ ID NO 430 (antibody, IgG4, V domains shown)
VH: B1 VH with D16Q, A23T, Y27G, K45G, M70I, L89A, P111Y
VL: B1 VL with H34A, E42Q, A84G
notes: as for B1
B34: VH SEQ ID NO 610 / VL SEQ ID NO 326 (antibody, IgG4, V domains shown)
VH: B1 VH with D16Q, A23T, Y27G, S30T, K45G, M70I, L89A, P111Y
VL: B1 VL with V29I, A51T, A84G, Q100A, I106L
notes: as for B1
B35: VH SEQ ID NO 602 / VL SEQ ID NO 502 (antibody, IgG4, V domains shown)
VH: B1 VH with D16Q, A23T, Y27G, K45G, M70I, L89A, P111Y
VL: B1 VL with E42Q, A51T
notes: as for B1

Target: T1, recombinant human activated Factor VII …
Experiment: BLI (Fortebio)

Row | Kd | Binder
1 | 32 nM | B1
2 | 600 nM | B2
3 | 14 nM | B3
4 | 13 nM | B4
5 | 310 nM | B5
6 | 15 nM | B6
7 | 16 nM | B7
8 | 15 nM | B8
9 | 11 nM | B9
10 | 10 nM | B10
11 | 51 nM | B11
12 | 10 nM | B12
13 | 43 nM | B13
14 | 35 nM | B14
15 | 48 nM | B15
16 | 14 nM | B16
17 | 370 nM | B17
18 | 90 nM | B18

Row | Kd | Binder
19 | 11 nM | B19
20 | 14 nM | B20
21 | 39 nM | B21
22 | 30 nM | B22
23 | 80 nM | B23
24 | 200 nM | B24
25 | 9.2 nM | B25
26 | 8.8 nM | B26
27 | 33 nM | B27
28 | 13 nM | B28
29 | 24 nM | B29
30 | 9 nM | B30
31 | 13 nM | B31
32 | 10 nM | B32
33 | 590 nM | B33
34 | 11 nM | B34
35 | 14 nM | B35
